From publication PMC11053023 (Nature Communications, 2024) come the findings set out here.

The target of assay [1] is T1, FEM1B-EB-EC ternary complex (human, UniProt Q9UK73 1-627; Q15370 1-118; Q15369 17-112).
T1 construct: FEM1B, human, full-length (FEM1B^FL); elongin B (EB, ELOB), human; elongin C (EC, ELOC), human; written as one protomer; also called FEM1B-elongin B-elongin C; FEM1B-ELOB-ELOC; source: E. coli BL21(DE3), co-expressed, purified (Ni-NTA, SEC); copies: + +
The experiment in a line: ITC; peptides (0.5-1 mM) titrated into 50 μM protein in the cell, 25 °C; 20 mM Tris, 200 mM NaCl, pH 7.5, 1 mM EDTA; one-site binding model. To be noted: both partners purified.

Assay [2] addresses T2, FEM1B-EB-EC ternary complex with FEM1B D356A/V391A/Q394A/F501A/H502A (human, UniProt Q9UK73 1-627; Q15370 1-118; Q15369 17-112, D356A | V391A | Q394A | F501A | H502A).
T2 construct: FEM1B, human, full length, quintuple mutant of the aromatic (psi) pocket; elongin B (EB, ELOB), human; elongin C (EC, ELOC), human; also called 5A mutant; FEM1BFL-EB-EC D356A/V391A/Q394A/F501A/H502A; source: E. coli BL21(DE3), purified in the same way as the WT protein; copies: + +
The assay can be described thus: ITC; SUMO fusion peptides (0.5-1 mM) titrated into 50 μM FEM1B-EB-EC in the cell, 25 °C, 20 mM Tris, 200 mM NaCl, pH 7.5, 1 mM EDTA; one-site binding model. To be noted: both partners purified. (In ITC the heat of successive injections is recorded.)

For orientation: Kd means the concentration at which binding is half-saturated. The low end stands for tighter binding, the high end for weaker binding. For orientation: stoichiometry N means a count of units in the complex or per binding partner.

B1: CCDC89 C-degron variant with deletion of nine residues in the linker region (peptide)
chain: KKHSLDLLLRHLSP
B1 yielded a Kd in assay [1] of more than 50 µM.

B2: SUMO-(GGGS)2-CDK5R1 285-307 WT (peptide)
chain: VFSDLKNESGQEDKKRLLLGLDR
notes: CDK5R1, human, C-terminal 23 residues; also called CDK5R1 23-mer; 23-aa CDK5R1 C-degron; source: E. coli BL21(DE3), purified (Ni-NTA; SEC for ITC); not shown: SUMO with (GGGS)2 linker, N-terminal, kept
On to B2, for which, in assay [2], the affinity, expressed as Kd, was 5.7 ± 0.8 µM and the “stoichiometry N” value is 0.16.

B3: CUX1 C-degron F-22A, SUMO fusion (peptide)
chain: KAADHLHKFHENDNGAAAGDLWQ
On to B3, for which the Kd in assay [1] was more than 500 µM.

B4: SUMO-(GGGS)2-CDK5R1 298-307 WT (peptide)
chain: KKRLLLGLDR
notes: CDK5R1, human, C-terminal 10 residues; also called CDK5R1 10-mer; 10-aa CDK5R1 C-degron; source: E. coli BL21(DE3), purified (Ni-NTA; SEC for ITC); not shown: SUMO with (GGGS)2 linker, N-terminal, kept
Turning to B4, the “stoichiometry N” value in assay [2] came out at 0.46.
